Test results as given in patent WO2016167227A1.

Molecular target: human-derived insoluble fibrin (human) (UniProt P02671)
Test: ELISA, peroxidase-labelled antibody on fibrin plate; 0.1 μg/mL of 443-2 gave about the signal of 10 μg/mL of the reference

Sequence of UniProt P02671 (P02671 36-629 limits assumed, chain 1 of 3): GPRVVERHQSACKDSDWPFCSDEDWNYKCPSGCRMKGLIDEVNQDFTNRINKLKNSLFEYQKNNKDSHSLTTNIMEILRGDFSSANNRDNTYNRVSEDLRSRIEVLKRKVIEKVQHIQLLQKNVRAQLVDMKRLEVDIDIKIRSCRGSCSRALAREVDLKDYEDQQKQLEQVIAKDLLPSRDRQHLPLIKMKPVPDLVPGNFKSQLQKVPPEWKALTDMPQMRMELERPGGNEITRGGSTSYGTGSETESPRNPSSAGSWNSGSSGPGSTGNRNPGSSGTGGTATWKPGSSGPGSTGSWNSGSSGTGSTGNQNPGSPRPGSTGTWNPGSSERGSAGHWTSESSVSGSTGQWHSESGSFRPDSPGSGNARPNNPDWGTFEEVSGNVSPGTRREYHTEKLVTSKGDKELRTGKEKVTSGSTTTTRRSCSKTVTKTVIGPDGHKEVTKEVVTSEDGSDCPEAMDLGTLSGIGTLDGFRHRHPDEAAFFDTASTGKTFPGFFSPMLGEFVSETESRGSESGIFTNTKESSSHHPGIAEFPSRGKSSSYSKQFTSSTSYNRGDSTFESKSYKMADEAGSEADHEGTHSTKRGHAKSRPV
Sequence of UniProt P02671 (chain, as listed by the source limits assumed, chain 2 of 3): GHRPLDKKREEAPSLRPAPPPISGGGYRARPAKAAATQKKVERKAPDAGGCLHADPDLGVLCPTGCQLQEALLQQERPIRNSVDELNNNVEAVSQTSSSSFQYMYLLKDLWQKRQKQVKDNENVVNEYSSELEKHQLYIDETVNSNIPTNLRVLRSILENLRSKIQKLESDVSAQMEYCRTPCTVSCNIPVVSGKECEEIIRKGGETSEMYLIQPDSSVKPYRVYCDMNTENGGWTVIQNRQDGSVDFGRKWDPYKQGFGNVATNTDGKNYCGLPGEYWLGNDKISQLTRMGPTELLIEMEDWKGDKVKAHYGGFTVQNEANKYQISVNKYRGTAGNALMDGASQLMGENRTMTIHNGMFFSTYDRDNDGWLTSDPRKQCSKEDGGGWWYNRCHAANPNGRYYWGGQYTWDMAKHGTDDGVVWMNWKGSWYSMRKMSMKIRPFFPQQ
Sequence of UniProt P02671 (chain, as listed by the source limits assumed, chain 3 of 3): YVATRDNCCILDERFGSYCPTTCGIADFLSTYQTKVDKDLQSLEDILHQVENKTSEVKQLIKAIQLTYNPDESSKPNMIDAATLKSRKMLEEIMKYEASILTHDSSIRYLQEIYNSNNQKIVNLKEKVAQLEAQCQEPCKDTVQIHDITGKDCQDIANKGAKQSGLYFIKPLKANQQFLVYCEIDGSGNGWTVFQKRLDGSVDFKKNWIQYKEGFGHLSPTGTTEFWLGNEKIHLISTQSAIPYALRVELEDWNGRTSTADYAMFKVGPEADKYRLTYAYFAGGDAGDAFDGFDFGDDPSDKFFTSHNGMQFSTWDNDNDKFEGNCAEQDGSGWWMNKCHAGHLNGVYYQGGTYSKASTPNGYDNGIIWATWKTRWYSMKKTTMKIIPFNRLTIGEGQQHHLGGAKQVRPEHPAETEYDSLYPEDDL

B1: 443-2 antibody (antibody, V domains shown)
VH: QIQLVQSGPELKKPGESVKISCKASGYTFTDYAMNWVKQAPGNGLKWMGWINTQTGKPTYADDFKQRFVFSLETSATTAYLQINNLNIEDTATYFCTRLMDAWGQGASVTVSS
VL: DIVMTQSPSSLAVSAGETVTINCKSSQSLLSSGNQKNYLAWYQQKPGQSPKLLIYLASTRESGVPDRLIGSGSGTDFTLTISSMQAEDLAIYYCQQYYETPHTFGAGTKLELKR
- fold affinity for insoluble fibrin against the 102-10 antibody (printed 102-12): 100 times
